Measurements taken from publication PMC12227774.

What was measured:
YBX3 CSD = YBX3 CSD (human, UniProt P16989 82-174); assay: BLI
YBX1 CSD = YBX1 CSD (human, UniProt P67809 48-159); assay: BLI
Chain of YBX1 CSD (P67809 48-159): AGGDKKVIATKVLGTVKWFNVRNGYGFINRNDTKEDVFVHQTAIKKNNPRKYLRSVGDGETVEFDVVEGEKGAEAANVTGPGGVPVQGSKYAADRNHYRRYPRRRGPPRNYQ

Chain of YBX3 CSD (P16989 82-174): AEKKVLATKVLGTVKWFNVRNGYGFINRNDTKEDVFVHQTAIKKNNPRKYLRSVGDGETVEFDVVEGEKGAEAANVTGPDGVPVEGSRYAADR

Row | Binder | Kd (YBX3 CSD) | Kd (YBX1 CSD)
1 | GGAGGCCACCUCUCCAAGGGCUUCU (structured_RNA, none) [FURIN-25nt] | 87.5 nM | 346 nM
2 | GGAGGCCACCUCUCCAAGGGCUUCU (structured_RNA, m5C at position 12 (NSUN6-methylated)) [FURIN-25nt-m5C] | 45 nM | 214 nM
